Assay results from patent US20260035433A1.

Target: His-Tagged rhFc(gamma) receptor I (recombinant human Fc(gamma)R-I; Acro Biosystems, catalog# FCA-H52H1) (human)
Experiment: ELISA, fusion protein coated at 10 ug/mL, His-tagged rhFc(gamma)RI in solution, anti-His-HRP

Chain of His-Tagged rhFc(gamma) receptor I (recombinant human Fc(gamma)R-I; Acro Biosystems, catalog# FCA-H52H1) (human) (P12314 16-292): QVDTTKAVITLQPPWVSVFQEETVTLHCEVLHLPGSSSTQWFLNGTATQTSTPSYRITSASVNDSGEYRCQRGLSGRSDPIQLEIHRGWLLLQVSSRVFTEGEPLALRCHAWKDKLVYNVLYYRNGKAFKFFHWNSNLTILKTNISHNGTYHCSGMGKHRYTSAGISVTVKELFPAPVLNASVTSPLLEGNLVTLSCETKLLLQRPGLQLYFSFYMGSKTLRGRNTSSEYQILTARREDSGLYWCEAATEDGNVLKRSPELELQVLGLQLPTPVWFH

| Binder | OD450 at 222 ng/ml Fc(gamma) RI [OD450] |
| --- | --- |
| PD-L1 analog-Fc fusion protein of SEQ ID NO: 20 (Fc fusion) FTITVSKDLYVVEYGGNVTMECKFPVEKQLNLFALIVYWEMEDKKIIQFVNGKEDLKVQHSSYSQRAQLLKDQLFLGKAALQITDVRLQDAGVYRCLIGYGGADYKRITLKVHAPYRNISQRISVDPVTSGGGGQGGGSGGQGGGGGDCPKCPAPEMLGGPSVFIFPPKPKDTLLIARTPEVTCVVVDLDPEDPEVQISWFVDGKQMQTAKTQPREEQFNGTYRVVSVLPIGHQDWLKGKQFTCKVNNKALPSPIERTISKARGQAHQPSVYVLPPSREELSKNTVSLTCLIKDFFPPDIDVEWQSNGQQEPESKYRTTPPQLDEDGSYFLYSKLSVDKSRWQRGDTFICAVMHEALHNHYTQESLSHSPG | 1.97 |
| PD-L1 analog-Fc fusion protein of SEQ ID NO: 21 (Fc fusion) LIGYGGADYKRITLKVHAPYRNISQRISVDPVTSGGGGQGGGSGGQGGGGGDCPKCPAPEMLGGPSVFIFPPKPKDTLLIARTPEVTCVVVDLDPEDPEVQISWFVDGKQMQTAKTQPREEQFNGTYRVVSVLPIGHQDWLKGKQFTCKVNNKALPSPIERTISKARGQAHQPSVYVLPPSREELSKNTVSLTCLIKDFFPPDIDVEWQSNGQQEPESKYRTTPPQLDEDGSYFLYSKLSVDKSRWQRGDTFICAVMHEALHNHYTQESLSHSPG | 2.05 |
| PD-L1 analog-Fc fusion protein of SEQ ID NO: 22 (Fc fusion) FTITVSKDLYVVEYGGNVTMECKFPVEKQLNLFALIVYWEMEDKKIIQFVNGKEDLKVQHSSYSQRAQLLKDQLFLGKAALQITDVRLQDAGVYRCLIGYGGADYKRITLKVHAPYRNISQRISVDPVTSQGGGSGGQDCPKCPAPEMLGGPSVFIFPPKPKDTLLIARTPEVTCVVVDLDPEDPEVQISWFVDGKQMQTAKTQPREEQFNGTYRVVSVLPIGHQDWLKGKQFTCKVNNKALPSPIERTISKARGQAHQPSVYVLPPSREELSKNTVSLTCLIKDFFPPDIDVEWQSNGQQEPESKYRTTPPQLDEDGSYFLYSKLSVDKSRWQRGDTFICAVMHEALHNHYTQESLSHSPG | 1.91 |
| PD-L1 analog-Fc fusion protein of SEQ ID NO: 24 (Fc fusion) LIGYGGADYKRITLKVHAPYRNISQRISVDPVTSEHELMCQAEGYPEAEVIWTSSDHRVLSGKTTITNSNREEKLFNVTSTLNINATANEIFYCTFQRSGPEENNTAELVIPERLPVPASERTHFMILGPFGGGGQGGGSGGQGGGGGDCPKCPAPEMLGGPSVFIFPPKPKDTLLIARTPEVTCVVVDLDPEDPEVQISWFVDGKQMQTAKTQPREEQFNGTYRVVSVLPIGHQDWLKGKQFTCKVNNKALPSPIERTISKARGQAHQPSVYVLPPSREELSKNTVSLTCLIKDFFPPDIDVEWQSNGQQEPESKYRTTPPQLDEDGSYFLYSKLSVDKSRWQRGDTFICAVMHEALHNHYTQESLSHSPG | 1.49 |
| PD-L1 analog-Fc fusion protein of SEQ ID NO: 26 (Fc fusion) FTITVSKDLYVVEYGGNVTMECKFPVEKQLNLFALIVYWEMEDKKIIQFVNGKEDLKVQHSSYSQRAQLLKDQLFLGKAALQITDVRLQDAGVYRCLIGYGGADYKRITLKVHAPYRNISQRISVDPVTSEHELMCQAEGYPEAEVIWTSSDHRVLSGKTTITNSNREEKLFNVTSTLNINATANEIFYCTFQRSGPEENNTAELVIPERLPVPASERTHFMILGPFQGGGSGGQDCPKCPAPEMLGGPSVFIFPPKPKDTLLIARTPEVTCVVVDLDPEDPEVQISWFVDGKQMQTAKTQPREEQFNGTYRVVSVLPIGHQDWLKGKQFTCKVNNKALPSPIERTISKARGQAHQPSVYVLPPSREELSKNTVSLTCLIKDFFPPDIDVEWQSNGQQEPESKYRTTPPQLDEDGSYFLYSKLSVDKSRWQRGDTFICAVMHEALHNHYTQESLSHSPG | 1.79 |
| PD-L1 analog-Fc fusion protein of SEQ ID NO: 27 (Fc fusion) FTITVSKDLYVVEYGGNVTMECKFPVEKQLNLFALIVYWEMEDKKIIQFVNGKEDLKVQHSSYSQRAQLLKDQLFLGKAALQITDVRLQDAGVYRCLIGYGGADYKRITLKVHAPYRNISQRISVDPVTSEHELMCQAEGYPEAEVIWTSSDHRVLSGKTTITNSNREEKLFNVTSTLNINATANEIFYCTFQRSGPEENNTAELVIPERLPVPASERTHFMILGPFGGGGQGGGSGGQGGGGGDCPKCPAPEMLGGPSVFIFPPKPKDTLLIARTPEVTCVVVDLDPEDPEVQISWFVDGKQMQTAKTQPREEQFNGTYRVVSVLPIGHQDWLKGKQFTCKVNNKALPSPIERTISKARGQAHQPSVYVLPPSREELSKNTVSLTCLIKDFFPPDIDVEWQSNGQQEPESKYRTTPPQLDEDGSYFLYSKLSVDKSRWQRGDTFICAVMHEALHNHYTQESLSHSPG | 1.78 |
| PD-L1 analog-Fc fusion protein of SEQ ID NO: 32 (Fc fusion) FTITVSKDLYVVEYGGNVTMECKFPVEKQLNLFALIVYWEMEDKKIIQFVNGKEDLKVQHSSYSQRAQLLKDQLFLGKAALQITDVRLQDAGVYCCLIGYGGADYKRITLKVHAPYRNISQRISVDPVTSEHELMCQAEGYPEAEVIWTSSDHRVLSGKTTITNSNREEKLFNVTSTLNINATANEIFYCTFQRSGPEENNTAELVIPERLPVPASERTHFMILGPFGGGGQGGGSGGQGGGGGDCPKCPAPEMLGGPSVFIFPPKPKDTLLIARTPEVTCVVVDLDPEDPEVQISWFVDGKQMQTAKTQPREEQFNGTYRVVSVLPIGHQDWLKGKQFTCKVNNKALPSPIERTISKARGQAHQPSVYVLPPSREELSKNTVSLTCLIKDFFPPDIDVEWQSNGQQEPESKYRTTPPQLDEDGSYFLYSKLSVDKSRWQRGDTFICAVMHEALHNHYTQESLSHSPG | 1.7 |
